{
  "source": "paper doi:10.1101/2025.04.03.647111",
  "key": {"[1]": {"target": "HtpG from Synechococcus elongatus PCC 7942 (Synechococcus elongatus PCC 7942)", "assay": "AUC"}, "[2]": {"target": "HtpG from Synechococcus elongatus PCC 7942 (Synechococcus elongatus PCC 7942)", "assay": "SEC"}},
  "data": [
    {"substance": "HtpG from Synechococcus elongatus PCC 7942 (natural protein)", "values": [
      {"measurement": "stoichiometry N", "setting": "[1]", "value": 2},
      {"measurement": "stoichiometry N", "setting": "[2]", "value": 2}
    ]}
  ]
}
